Reference: patent US20260184748A1, “COMPOSITIONS COMPRISING OCTADECANEUROPEPTIDES (ODN) AND SYNTHETIC DERIVATIVES THEREOF AND METHODS OF USE FOR MODULATION OF FOOD INTAKE, OBESITY, BODY WEIGHT, NAUSEA, AND EMESIS” (The Trustees of the University of Pennsylvania, priority 2022, published 2026)
“Also recorded” adds a separate entry of the source.

Tests used:
CCR8 = CCR8 (Homo sapiens, UniProt P51685); experiment: Arrestin agonist mode; type: cell-based; details: read-out: RC50 (the source's name)
[1] = 24 h body weight change in rats; type: in vivo, rat; details: 4th ventricle injection
[2] = Food intake and meal pattern after central injection in rats; type: in vivo, rat; details: for food intake: 4th ventricle injection
Protocol: Rats were exposed to kaolin for at least 5 days prior to measuring kaolin consumption in pica testing. Except for studies conducted in the BioDaq, for all feeding studies rats were housed in hanging wire cages to allow for accurate measurement of food spillage.
For cannula implantation, rats were anesthetized by intraperitoneal injection of a mixture containing ketamine (90 mg/kg, Butler Animal Health Supply), xylazine (2.7 mg/kg, Anased), and acepromazine (0.64 mg/kg, Butler Animal Health Supply) (KAX) and then placed into a stereotaxic apparatus. Each rat was stereotaxically implanted with a guide cannula (26-ga, Plastics One) aimed at the fourth ventricle (guide cannula coordinates: on midline, 2.5 mm anterior to occipital suture, 5.2 mm ventral to skull; internal cannula aimed 7.2 mm ventral to skull) or the lateral ventricle (guide cannula coordinates: 1.5 mm lateral to midline, 0.9 mm posterior to bregma, 1.8 mm ventral to skull; internal cannula aimed 3.8 mm ventral to skull). For all cannulas, dummies (no projection beyond guide) were inserted in the guide cannula and left until infusions were performed. For all surgeries, rats received post-operative temperature support and analgesia was provided immediately following surgery and for two post-operative days (2 mg/kg meloxicam).

CCR10 = target: T1, CCR10 (Homo sapiens, UniProt P46092); experiment: Arrestin agonist mode; type: cell-based; details: read-out: RC50 (the source's name)
T1 sequence (P46092 1-362): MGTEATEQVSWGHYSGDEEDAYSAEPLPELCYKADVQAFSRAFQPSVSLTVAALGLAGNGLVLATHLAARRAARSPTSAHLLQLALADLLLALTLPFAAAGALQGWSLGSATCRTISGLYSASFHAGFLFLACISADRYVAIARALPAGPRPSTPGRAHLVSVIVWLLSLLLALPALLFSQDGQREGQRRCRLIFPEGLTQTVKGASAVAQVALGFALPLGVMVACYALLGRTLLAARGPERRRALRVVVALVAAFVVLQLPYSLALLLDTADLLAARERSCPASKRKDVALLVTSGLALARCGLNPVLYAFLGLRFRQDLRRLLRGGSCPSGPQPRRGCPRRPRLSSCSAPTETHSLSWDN

PROKR1 = PROKR1 (Homo sapiens, UniProt Q8TCW9); experiment: Arrestin agonist mode; type: cell-based; details: read-out: RC50 (the source's name)
PROKR1, sequence (Q8TCW9 whole entry): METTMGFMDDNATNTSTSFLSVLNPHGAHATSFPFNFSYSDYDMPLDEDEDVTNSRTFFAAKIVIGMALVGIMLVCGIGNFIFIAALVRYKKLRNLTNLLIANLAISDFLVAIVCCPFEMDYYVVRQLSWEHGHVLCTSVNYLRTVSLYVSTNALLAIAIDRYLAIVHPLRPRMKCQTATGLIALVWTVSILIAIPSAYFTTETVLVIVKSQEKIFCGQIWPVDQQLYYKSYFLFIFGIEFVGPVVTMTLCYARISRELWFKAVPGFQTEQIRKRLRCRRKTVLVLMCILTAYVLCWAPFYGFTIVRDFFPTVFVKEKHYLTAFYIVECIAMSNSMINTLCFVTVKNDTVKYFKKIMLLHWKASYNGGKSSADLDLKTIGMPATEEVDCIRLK

PROKR2 = PROKR2 (Homo sapiens, UniProt Q8NFJ6); experiment: Arrestin agonist mode; type: cell-based; details: read-out: RC50 (the source's name)
PROKR2, sequence (Q8NFJ6 whole entry): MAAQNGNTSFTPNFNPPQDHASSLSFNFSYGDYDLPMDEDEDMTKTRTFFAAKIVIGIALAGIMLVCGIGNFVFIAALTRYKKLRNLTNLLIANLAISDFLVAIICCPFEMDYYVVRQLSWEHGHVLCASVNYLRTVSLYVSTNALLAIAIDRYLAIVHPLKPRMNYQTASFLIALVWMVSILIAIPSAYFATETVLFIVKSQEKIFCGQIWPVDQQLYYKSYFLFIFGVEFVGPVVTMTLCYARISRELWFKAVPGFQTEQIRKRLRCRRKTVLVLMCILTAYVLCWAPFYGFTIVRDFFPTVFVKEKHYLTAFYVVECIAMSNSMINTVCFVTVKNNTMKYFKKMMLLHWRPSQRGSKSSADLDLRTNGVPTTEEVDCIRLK

CCR4 = target: T2, CCR4 (Homo sapiens, UniProt P51679); experiment: Arrestin agonist mode; type: cell-based; details: read-out: RC50 (the source's name)
T2 sequence (P51679 1-360): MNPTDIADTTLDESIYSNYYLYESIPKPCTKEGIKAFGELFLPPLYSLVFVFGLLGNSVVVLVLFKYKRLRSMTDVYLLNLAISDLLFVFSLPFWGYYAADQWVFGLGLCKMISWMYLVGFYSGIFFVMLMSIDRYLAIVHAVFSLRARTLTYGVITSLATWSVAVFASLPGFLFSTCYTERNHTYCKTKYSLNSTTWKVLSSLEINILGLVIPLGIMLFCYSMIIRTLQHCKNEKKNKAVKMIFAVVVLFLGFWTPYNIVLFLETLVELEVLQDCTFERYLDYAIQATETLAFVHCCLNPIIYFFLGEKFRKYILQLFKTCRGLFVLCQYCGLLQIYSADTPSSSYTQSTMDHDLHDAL

[3] = Insulin tolerance test after 4th ventricle ODN; type: in vivo, rat; details: 4th ventricle pretreatment then ODN 200 μg/2 μL; chow rats
RXFP3 = target: T3, RXFP3 (Homo sapiens, UniProt Q9NSD7); experiment: Arrestin agonist mode; type: cell-based; details: read-out: RC50 (the source's name)
T3 sequence (Q9NSD7 1-469): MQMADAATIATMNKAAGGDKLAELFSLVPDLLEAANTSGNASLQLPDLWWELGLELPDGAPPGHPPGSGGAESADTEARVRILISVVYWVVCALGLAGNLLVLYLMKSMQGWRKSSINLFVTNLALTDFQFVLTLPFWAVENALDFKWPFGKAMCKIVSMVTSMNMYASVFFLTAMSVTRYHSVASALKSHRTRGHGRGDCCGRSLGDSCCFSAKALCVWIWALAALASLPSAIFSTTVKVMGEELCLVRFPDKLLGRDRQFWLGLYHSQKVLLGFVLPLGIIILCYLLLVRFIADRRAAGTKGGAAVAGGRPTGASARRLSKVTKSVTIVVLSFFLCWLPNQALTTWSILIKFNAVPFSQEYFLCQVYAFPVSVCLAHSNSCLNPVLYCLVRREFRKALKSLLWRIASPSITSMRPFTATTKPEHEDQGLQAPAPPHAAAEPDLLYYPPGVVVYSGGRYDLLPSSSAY

relaxin-3 receptor = target: T4, relaxin-3 receptor (Rattus norvegicus, UniProt Q5Y987); experiment: Central ODN antagonizes relaxin-3 induced hyperphagia; type: in vivo; details: injection into the nucleus incertus; rats
T4 construct: expressed a high level of the relaxin-3 receptor; from tissue; host or cells: rat brain, nucleus incertus (living animal)
T4 sequence (Q5Y987 1-469): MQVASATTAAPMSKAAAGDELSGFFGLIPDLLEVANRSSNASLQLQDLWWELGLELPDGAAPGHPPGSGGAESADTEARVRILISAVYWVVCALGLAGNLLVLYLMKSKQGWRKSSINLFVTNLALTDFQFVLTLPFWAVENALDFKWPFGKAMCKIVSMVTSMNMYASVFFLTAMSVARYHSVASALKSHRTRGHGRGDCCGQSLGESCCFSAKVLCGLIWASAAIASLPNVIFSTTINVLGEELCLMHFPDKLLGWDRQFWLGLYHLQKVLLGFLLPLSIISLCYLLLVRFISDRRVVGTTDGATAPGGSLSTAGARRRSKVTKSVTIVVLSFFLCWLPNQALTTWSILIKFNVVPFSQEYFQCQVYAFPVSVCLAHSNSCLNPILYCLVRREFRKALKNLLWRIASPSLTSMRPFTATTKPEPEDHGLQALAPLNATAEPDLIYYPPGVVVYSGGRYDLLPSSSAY
Protocol: Rats were stereotaxically implanted with a bilateral guide cannula (26-ga, Plastics One) aimed at the nucleus incertus (guide cannula coordinates: ±0.5 lateral to midline, 9.5 mm […] to bregma, 5.8 mm ventral to skull; internal cannula aimed 7.8 mm ventral to skull). Recombinant human relaxin-3 was purchased (130-10, PreproTech Inc.) and ODN was synthesized by the Doyle laboratory. […] 24 h food intake was recorded in a Biodaq system (Research Diets, Inc).

C5aR1 = target: T5, C5aR1 (Homo sapiens, UniProt P21730); experiment: Arrestin agonist mode; type: cell-based; details: read-out: RC50 (the source's name)
T5 sequence (P21730 1-350): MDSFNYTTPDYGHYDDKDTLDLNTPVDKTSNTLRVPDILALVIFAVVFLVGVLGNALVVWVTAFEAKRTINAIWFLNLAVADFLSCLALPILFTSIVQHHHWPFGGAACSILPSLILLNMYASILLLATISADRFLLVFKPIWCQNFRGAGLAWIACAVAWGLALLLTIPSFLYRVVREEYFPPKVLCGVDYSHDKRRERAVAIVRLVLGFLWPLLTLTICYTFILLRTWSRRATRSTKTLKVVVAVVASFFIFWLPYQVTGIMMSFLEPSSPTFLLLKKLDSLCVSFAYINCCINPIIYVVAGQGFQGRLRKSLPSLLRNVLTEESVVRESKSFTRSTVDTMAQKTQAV

C5L2 = C5L2 (Homo sapiens, UniProt Q9P296); experiment: Arrestin agonist mode; type: cell-based; details: read-out: RC50 (the source's name)
C5L2, sequence (Q9P296 whole entry): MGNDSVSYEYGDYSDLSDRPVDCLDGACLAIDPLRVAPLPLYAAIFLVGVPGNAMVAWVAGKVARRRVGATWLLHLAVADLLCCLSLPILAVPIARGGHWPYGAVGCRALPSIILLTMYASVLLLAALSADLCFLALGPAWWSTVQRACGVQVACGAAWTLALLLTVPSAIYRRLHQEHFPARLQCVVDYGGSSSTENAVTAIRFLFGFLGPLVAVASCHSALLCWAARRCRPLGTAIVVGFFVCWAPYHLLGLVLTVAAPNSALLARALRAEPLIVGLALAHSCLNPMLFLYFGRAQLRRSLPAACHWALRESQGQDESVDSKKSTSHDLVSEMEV

CXCR6 = CXCR6 (Homo sapiens, UniProt O00574); experiment: Arrestin agonist mode; type: cell-based; details: read-out: RC50 (the source's name)
CXCR6, sequence (O00574 whole entry): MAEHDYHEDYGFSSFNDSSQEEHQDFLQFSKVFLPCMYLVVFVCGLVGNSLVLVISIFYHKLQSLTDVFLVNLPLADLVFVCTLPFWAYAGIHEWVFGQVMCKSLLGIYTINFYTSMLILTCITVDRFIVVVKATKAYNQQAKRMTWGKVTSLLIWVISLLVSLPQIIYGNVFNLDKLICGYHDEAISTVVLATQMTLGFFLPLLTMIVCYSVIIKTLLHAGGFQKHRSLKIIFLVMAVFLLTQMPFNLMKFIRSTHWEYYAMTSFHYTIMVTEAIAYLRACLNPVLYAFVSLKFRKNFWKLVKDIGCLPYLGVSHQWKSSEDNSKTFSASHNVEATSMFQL

CCR9 = target: T6, CCR9 (Homo sapiens, UniProt P51686); experiment: Arrestin agonist mode; type: cell-based; details: read-out: RC50 (the source's name)
T6 sequence (P51686 1-369): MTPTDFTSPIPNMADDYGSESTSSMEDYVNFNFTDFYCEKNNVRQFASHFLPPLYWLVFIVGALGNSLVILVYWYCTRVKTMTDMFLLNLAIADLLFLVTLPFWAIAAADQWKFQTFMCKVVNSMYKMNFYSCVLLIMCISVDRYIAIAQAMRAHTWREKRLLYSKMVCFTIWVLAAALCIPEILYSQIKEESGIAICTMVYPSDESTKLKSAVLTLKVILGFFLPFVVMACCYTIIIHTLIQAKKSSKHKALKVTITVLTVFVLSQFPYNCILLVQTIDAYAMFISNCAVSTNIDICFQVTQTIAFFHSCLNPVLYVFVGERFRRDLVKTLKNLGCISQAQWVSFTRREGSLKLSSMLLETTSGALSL

[4] = 4th ventricle, chow-maintained rats

B1: CCL1: control agonist (protein)
chain: KSMQVPFSRCCFSFAEQEIPLRAILCYRNTSSICSNEGLIFKLKRGKEACALDTVGWVQRHRKMLRHCPSKRK
Molecule B1 has an EC50 (CCR8) of 0.0458 µM.

B2: recombinant DBI protein: Rat recombinant diazepam binding inhibitor (DBI) protein (LS-G136996, Lifespan Biosciences) (protein, UniProt P11030 2-87, looked up)
Acyl-CoA-binding protein: SQADFDKAAEEVKRLKTQPTDEEMLFIYSHFKQATVGDVNTDRPGLLDLKGKAKWDSWNKLKGTSKENAMKTYVEKVEELKKKYGI
In the case of B2, the “24 h body weight change” value ([1]; HFD-maintained rats) is reported as “not significantly decreased”, the “24 h body weight change” value ([1]; chow-maintained rats) is reported as “not significantly decreased” and the food intake ([2]; HFD-maintained rats) is reported as “not high-fat diet (HFD) rats”. For the same molecule, the food intake ([2]; HFD-maintained rats, listed as DBI) was “did not decrease food intake in HFD-maintained rats”, the food intake ([2]; chow-maintained rats) was “suppresses food intake in chow fed rats; also recorded: hypophagic in chow” and the food intake ([2]; chow-maintained rats, listed as DBI) was “significantly reduced food intake at 4, 5, and 7-24 hours post injection; also recorded: decreased food intake at 4, 5, and 7-24 hours post injection”. For the same molecule, the number of bouts [2, 4] was “decreased the number of bouts at 8 and 21 hours post injection”, the number of meals [2, 4] was “decreased the number of meals at 8-10 and 12-21 hours post injection” and the “time spent in bouts” value [2, 4] was “did not alter the time spent in bouts”. The “time spent in meals” value [2, 4] was “decreased the time spent in meals 8-24 hours post injection”.

B3: CCL27: control agonist (protein)
chain: FLLPPSTACCTQLYRKPLSDKLLRKVIQVELQEADGDCHLQAFVLHLAQRSICIHPQNPSLSQWFEHQERKLHGTLPKLNFGMLRKMG
Molecule B3 has an EC50 (CCR10) of 0.0263 µM.

B4: EG VEGF: control agonist (protein)
chain: AVITGACERDVQCGAGTCCAISLWLRGLRMCTPLGREGEECHPGSHKVPFFRKRKHHTCPCLPNLLCSRFPDGRYRCSMDLKNINF
B4 showed an EC50 (PROKR1) of 0.0177 µM and an EC50 (PROKR2) of 0.0106 µM.

B5: CCL22: control agonist (protein)
chain: GPYGANMEDSVCCRDYVRYRLPLRVVKHFYWTSDSCPRPGVVLLTFRDKEICADPRVPWVKMILNKLSQ
Work on B5 yielded an EC50 (CCR4) of 0.00344 µM.

B6: Relaxin-3: Recombinant human relaxin-3 (130-10, PreproTech); control agonist of RXFP3 (protein)
chain 1: RAAPYGVRLCGREFIRAVIFTCGGSRWRRSDILAHEAMGDTFPDADADEDSLAGELDEAMGSSEWLALTKSPQAFYRGRPSWQGTPGVLRGSRDVLAGLSSSCCKWGCSKSEISSLC
chain 2: B6 chain 1
For B6, the “effect of pretreatment on ODN improvement in insulin tolerance” value [3] was “block hindbrain ODN improvements in insulin tolerance”, the EC50 (RXFP3) was 0.0119 µM and the “24-hour food intake and body weight” value (relaxin-3 receptor) was “increased 24-hour food intake and body weight”.

B7: Complement C5a: control agonist (protein)
chain: TLQKKIEEIAAKYKHSVVKKCCYDGACVNNDETCEQRAARISLGPRCIKAFTECCVVASQLRANISHKDMQLGR
B7 showed an EC50 (C5aR1) of 0.00138 µM and an EC50 (C5L2) of 0.00157 µM.

B8: CXCL16: control agonist (protein)
chain: NEGSVTGSCYCGKRISSDSPPSVQFMNRLRKHLRAYHRCLYYTRFQLLSWSVCGGNKDPWVQELMSCLDLKECGHAYSGIVAHQKHLLP
B8 gave an EC50 (CXCR6) of 0.00681 µM.

B9: CCL25: control agonist (protein)
chain: QGVFEDCCLAYHYPIGWAVLRRAWTYRIQEVSGSCNLPAAIFYLPKRHRKVCGNPKSREVQRAMKLLDARNKVFAKLHHNTQTFQAGPHAVKKLSSGNSKLSSSKFSNPISSSKRNVSLLISANSGL
In the case of B9, the EC50 (CCR9) is reported as 0.173 µM.
